The record followed here is article PMC7144947.

Read-outs that look alike come from different tables or passages of the source.

For data set [1], the target named is T1, Sox2-ΔRBM (Mus musculus, UniProt P48432 1-319, del121-180). The data set can be described thus: EMSA.
For the next data set, the target named is Sox11 (UniProt Q7M6Y2 1-395). Put plainly: EMSA. (A gel shift assay detects complexes by their altered migration in electrophoresis.)
For data set [2], the target named is T2, Sox2 (Mus musculus, UniProt P48432 1-319). Put plainly: EMSA.
Data set [3] addresses T1, Sox2-ΔRBM. The data set can be described thus: in vitro RIP.
Data set [4] has as its target T2, Sox2. Put plainly: EMSA. The source holds these as a separate data set.
In data set [5] the target is T1, Sox2-ΔRBM. The data set can be described thus: EMSA. The source holds these as a separate data set.
In a further data set the target is Sox2(180-319) (Mus musculus, UniProt P48432 180-319). Put plainly: EMSA.
Data set [6] deals with T3, Sox2-ΔHMG (Mus musculus, UniProt P48432 1-319, del41-118). The data set can be described thus: EMSA.
A further data set concerns the target Sox2(1-120) (Mus musculus, UniProt P48432 1-120). The data set can be described thus: EMSA.
Another data set addresses Sox2(1-180) (Mus musculus, UniProt P48432 1-180). The data set can be described thus: EMSA.
Another data set addresses Sox1 (Mus musculus, UniProt P53783 1-391). The data set can be described thus: EMSA.
In another data set the target is Sox2(120-319) (Mus musculus, UniProt P48432 120-319). Put plainly: EMSA.
The target in data set [7] is T1, Sox2-ΔRBM. Put plainly: competition.
Data set [8] deals with T3, Sox2-ΔHMG. Put plainly: competition.
The target of the next data set is Sox2-HMG (Mus musculus, UniProt P48432 41-120). The data set can be described thus: competition.
Data set [9] concerns the target T3, Sox2-ΔHMG. Put plainly: competition. The source holds these as a separate data set.

Sequence of Sox11 (Q7M6Y2 whole entry): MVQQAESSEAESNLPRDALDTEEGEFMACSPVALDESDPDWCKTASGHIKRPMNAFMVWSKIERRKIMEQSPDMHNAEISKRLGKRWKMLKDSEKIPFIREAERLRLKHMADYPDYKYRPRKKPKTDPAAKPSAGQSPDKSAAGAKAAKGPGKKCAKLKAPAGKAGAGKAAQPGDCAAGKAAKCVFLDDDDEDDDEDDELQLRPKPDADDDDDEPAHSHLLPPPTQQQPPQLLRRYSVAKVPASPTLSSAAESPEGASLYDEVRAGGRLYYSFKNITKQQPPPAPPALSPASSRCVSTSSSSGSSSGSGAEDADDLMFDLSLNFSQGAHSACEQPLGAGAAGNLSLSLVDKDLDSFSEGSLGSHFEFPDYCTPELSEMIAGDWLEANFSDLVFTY
Sequence of Sox1 (P53783 whole entry): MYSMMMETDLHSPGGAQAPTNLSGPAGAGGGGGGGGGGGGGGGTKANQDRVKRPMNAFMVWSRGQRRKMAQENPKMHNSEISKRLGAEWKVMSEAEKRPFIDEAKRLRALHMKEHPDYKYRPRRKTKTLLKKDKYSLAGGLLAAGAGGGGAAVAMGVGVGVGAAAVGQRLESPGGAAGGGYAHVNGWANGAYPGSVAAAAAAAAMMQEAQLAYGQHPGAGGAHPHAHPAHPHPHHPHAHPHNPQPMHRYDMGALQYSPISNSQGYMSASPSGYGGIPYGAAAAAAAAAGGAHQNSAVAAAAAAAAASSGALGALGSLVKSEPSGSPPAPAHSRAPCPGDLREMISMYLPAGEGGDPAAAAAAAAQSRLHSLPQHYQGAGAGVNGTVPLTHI

B1: Sox2/Prox1 DNA (dsDNA)
DNA 1: CTAGCATTGTCTGGG
DNA 2: CCCAGACAATGCTAG
With B1, the binding result with Sox2-ΔRBM [1], with Sox11 and with Sox2 [2] was “binds” in each case.
Regarding CGCGGCUUGCCCUAUUAUAGUGUAG (ssRNA) [12th-24 Mut3], the binding result in the data set with Sox2-ΔRBM [3] is given as “binds”.
For GCGGCAAGCCCAUACUCGCGUUCAA (ssRNA) [12th-15 RNA], the figures for the binding result with Sox2 [4] and with Sox11 were “binds” and “no binding”, respectively.
Consider CGCGGCUUGCCCUAUCGCGGUGUAG (structured_RNA) [12th-24 RNA], for which the binding result with Sox2 [4] is “binds”; with Sox2-ΔRBM [5], “binds”; with Sox2(180-319) it was “no binding”; with Sox2-ΔHMG [6] it was “binds”; in the data set with Sox2(1-120) it was “binds”; with Sox2(1-180), “binds”. In addition, the binding result with Sox1 was “binds”.
Regarding CCUGCAGCUCAUGACCCCUGCUUCC (ssRNA) [Dicer1 RNA], the binding result in the data set with Sox2(120-319) is “binds”; with Sox2(180-319), “no binding”; in the data set with Sox2-ΔHMG [6] it was “binds”; with Sox11 it was “no binding”.
Take CAGCUUUUCCCUGUAGUCAUGAAUG (ssRNA) [Dnmt3b RNA]: the binding result in the data set with Sox2(120-319) is “binds”; in the data set with Sox2(180-319) it was “no binding”; with Sox2-ΔHMG [6], “binds”; with Sox11, “no binding”.
Regarding CGCGGCUUGCCCUAUCGCGGUGUAG (structured_RNA) [12th-24 RNA unlabelled], the binding result with Sox2-ΔRBM [7] was “binds”; with Sox2-ΔHMG [8] it was “binds”; with Sox2-HMG, “no binding”.

B2: Prox1 DNA unlabelled (dsDNA)
DNA 1: CTAGCATTGTCTGGG
DNA 2: CCCAGACAATGCTAG
Take B2: the binding result is “binds” with Sox2-ΔRBM [7], “no binding” in the data set with Sox2-ΔHMG [9] and “binds” with Sox2-HMG.
